Measured values published in patent publication US11029303B2, “PAH antibodies and uses thereof” (The Administrators of the Tulane Educational Fund, priority 2015, dated 2021).
“Also recorded” adds a separate entry of the source. Values belong to the molecule of their own block, whether it stands above or below them.

Legend:
Type in all cases: binding
[1] = Cross-reactivity of scFv clones against EPA 16 PAHs (competitive ELISA); details: for cross-reactivity / inhibition by the 16 EPA PAHs: 50 μM PAH, less than 20% decrease = non-reactive
Protocol: (§1) Competitive ELISA was performed similar as described in Example 3, except that an anti-myc antibody (9E10) was added before applying goat-antimouse-HPR secondary antibody to detect myc-tag on scFv construct.
(§2) A real-world field sample is a complex mixture and contains a variety of PAH compounds. An understanding of the abilities of antibody to recognize various PAHs can greatly facilitate the development and application of these antibodies into field studies. In the final assessment, the inventors determined the cross-reactivity of these three scFv clones among 16 structurally related EPA priority PAH species via competitive ELISAs. First, the inventors inhibited the binding of scFv to the immobilized Phen-BSA by high concentrations (50 μM) of PAHs to determine if the scFv can recognize the ligand.

[2] = Competitive ELISA with purified scFv, ligand 3-MP; details: Phen-BSA coated plate; 5% DMSO
Protocol: (§3) Competitive ELISA was performed in 96 well high binding plates (Corning, Corning, N.Y.). Each well was coated with 2 μg/ml antigen at 4° C. overnight and blocked with 3% BSA. Antibody scFv was incubated in the antigen-coated well with or without soluble competitor, and the binding of scFv was accessed using anti-myc antibody (9E10) and goat-antimouse-HPR antibody (Sigma Aldrich, MO). The HRP signal was detected by adding Sureblue TMB microwell peroxidase substrate (KPL, Gaithersburg, Md.) and the reaction was stopped after 5 minutes using 1 M HCl. The incubation steps were performed at room temperature for an hour. […]
(§4) Competitive ELISA or indirect ELISA was performed in 96-well high binding plates (Corning, Corning, N.Y.). […] The HRP signal was detected by adding Sureblue TMB microwell peroxidase substrate (KPL, Gaithersburg, Md.) and the reaction was stopped after 5 min using 1N HCl. The quantified signals were measured by reading […] values from microplate photometer. […]
(§5) Since A10, D7 and G8 represent three distinct family based on the sequence alignment, the inventors next explored the binding characteristics of these three clones as models to of the antibodies present in the immune library. Purified scFv were prepared and analyzed by competitive ELISA for their abilities to recognize unsubstituted phenanthrene or methylated phenanthrenes, as shown in FIG. 55. […]

[3] = Competitive ELISA with purified scFv, ligand 4-MP; details: Phen-BSA coated plate
Protocol: as §3, §4, §5

[4] = Cross-reactivity competitive ELISA, ligand indeno-[1,2,3-cd]-pyrene
Protocol: as §1, §2

[5] = Competitive flow cytometry of monoclonal yeast cells; details: soluble Phen versus 2-MePhen
Protocol: For flow cytometry, the yeast library was incubated in growth medium SD-CAA at 30° C. overnight for activation. The next day, activated yeast cells were diluted in induction medium SG/R-CAA at OD600=0.5, and cultured again at 30° C. for 16 hrs. After induction, 10^7 induced yeast cells (OD600=0.5) were washed twice with 0.5 ml wash buffer I (0.5% BSA supplemented with 2 mM EDTA), and once with 0.5 ml wash buffer II (0.5% BSA). Yeast cells were first incubated with 50 μl competitor (phenanthrene or 2-methylphenanthrene, 200 μM in PBS containing 1% DMSO) for 30 min with rotation at 25° C. An additional aliquot (50 μl) of biotinylated protein-conjugate (BSA-biotin, phen-BSA-biotin, or 2mp-BSA-biotin at concentrations between 1 and 100 nM) containing 2 μg/ml anti-myc antibody 9E10 was then added and the cells were incubated for another 30 min. Yeast cells were washed 3 times with wash buffer II and stained with 4 μg/ml goat-antimouse-PE (Life Technologies, Grand Island, N.Y.) and 10 μg/ml streptavidin-Alexa633 (Life Technologies, Grand Island, N.Y.) in the dark room at 4° C. for an hour. The stained yeast cells were washed three times with wash buffer II and resuspended in 1 ml PBS for flow-cytometry analysis. The selected yeast population was sorted into 2 ml pre-warmed YPD medium, and incubated at 30° C. without shaking for 30 min before transferring into 30° C. shaker for two days. The sorted pool was analyzed again by flow cytometry using the same staining procedure. […]
Yeast cells collected after 2nd sort were spread onto agar plates at various dilution level to obtain isolated single colonies. […] A total of 184 individual clones sorted from Pool 1 were picked and analyzed for their binding to Phen-BSA-Biotin in the presence of soluble Phen or 2-MePhen.

[6] = Cross-reactivity competitive ELISA, ligand fluoranthene; details: ligand 200 μM to 0.091 μM; read-out: affinity (IC50)
Protocol: as §1, §2

[7] = Competitive ELISA with D7 in artificial seawater (ONR7a) and crude oil
Protocol: FIG. 74 is (A) a graph showing a comparison of competitive ELISA for phenanthrene, an abundant PAH in crude oil, in phosphate-buffered saline (ionic strength of serum) and ONR7a, an artificial environmental matrix that mimics seawater. The limit of detection of phenanthrene in this matrix is ˜1 μM. Compared with two buffer PBS and ONR7A (article seawater), the IC50s of two curves were no different than 2 fold.
FIG. 77 is a bar graph showing that the D7 antibody can detect the model PAH, phenanthrene in a background of crude oil (4 and 0.8 mL/L). At both concentrations of crude oil, the presence of 500 μM phenanthrene decreased the absorbance in the immunoassay by 30% (*, p<0.05).
The D7 antibody can detect phenanthrene in the presence of crude oil at concentrations similar to those found in oil spills (0.8-4 mL per liter of seawater). At both concentrations tested (0.8 and 4 mL crude oil/L of synthetic seawater), the D7 antibody was able to detect phenanthrene, as shown by the 30% decrease in absorbance in the competitive ELISA. This will form the basis for an ELISA to determine the measurement and degradation of PAHs in crude oil. (see FIG. 77).

[8] = Cross-reactivity competitive ELISA, ligand pyrene; details: ligand 200 μM to 0.091 μM; read-out: affinity (IC50)
Protocol: as §1, §2

[9] = Competitive ELISA with purified scFv, ligand 9-MP; details: Phen-BSA coated plate; 5% DMSO
Protocol: as §3, §4, §5

[10] = Competitive ELISA with purified scFv, ligand phenanthrene; details: Phen-BSA coated plate; 5% DMSO
Protocol: as §3, §4, §5

[11] = Competitive ELISA with purified scFv, ligand 2-MP; details: Phen-BSA coated plate; 5% DMSO; read-out: affinity (IC50)
Protocol: as §3, §4, §5

IC50 [2]: 14400 nM | IC50 [3]: 940 nM
B1: Clone G8: scFv, amino acid sequence SEQ ID NO: 45; binds 4-methylphenanthrene most tightly (protein)
scFv: SAHAEAYLQQSGAELVRPGTSVKVSCKASGYVFTNFLIEWVKQRPGQGLEWIGVINPGNGGAAYNEKFKGKAILTADKSSSTAYMQLSSLTSDDSAVYFCARLPPSYDYDGDIDYWGQGTTVTVSSGGGGSGGGGSGGGARGGGGSDLVLTQSPASLAVALGQRATISCRASKSVTTSGYSLMHWYRQKPGQPPKLLIYPASNLESGVPARFSGSGSGTDFTLNIHPVEEEDAATYYCQHSRELPWTFGGGTKLEIKRAS
cross-reactivity / inhibition by the 16 EPA PAHs [1]: some cross-reactivity to other PAHs | affinity ([3]; 5% DMSO): sub-micromolar | recognition of indeno-[1,2,3-cd]-pyrene [4]: did not recognize | inhibition of binding to Phen-BSA-Biotin by soluble competitors [5]: unable to distinguish between the 2 soluble competitors

IC50 [6]: 1500 nM | IC50 [8]: 1500 nM | IC50 ([4]; ligand 200 μM to 0.091 μM, read-out: affinity (IC50)): 1500 nM
B2: Clone D7: scFv, amino acid sequence SEQ ID NO: 42; binds unmethylated and methylated phenanthrenes alike (protein)
scFv: SAHAEAYLQQSGAELVRPGTSVKVSCKASGYAFTKYLIEWVKQRPGQGLEWIGVINPGSGSTSYNEKFRYKAILTADTSSSTAYMQLSSLTSDDSAVYFCATIPASYRSDSLDCWGQGTTVTVSSGGGGSGGGGSGGGARGGGGSDTTVTQSHKFMSTSVGDRVSITCKASQDVGTAVAWYQQKPGQSPKLLIYWASTRHTGVPDRFTGSGSGTDFTLTISNVQSEDLADYFCQQYSSYPWTFGGGTKLEMKRAS
sensitivity for fluoranthene, indeno-[1,2,3-cd]-pyrene and pyrene relative to phenanthrenes [1]: about 4 fold | decrease in absorbance in the immunoassay ([7]; 500 μM phenanthrene, crude oil 4 and 0.8 mL/L): 30% | activity in artificial seawater matrix (ONR7a) ([7]; ONR7a): active | inhibition of binding to Phen-BSA-Biotin by soluble competitors [5]: unable to distinguish between the 2 soluble competitors

IC50 [11]: 8280 nM
B3: Clone A10: scFv, amino acid sequence SEQ ID NO: 37; binds methylated phenanthrenes, prefers 2-methylphenanthrene (protein)
scFv: SAHAEAYLQQSGAELVKPGASVKLSCKASGYTFTSYWMHWVKQRPGQGLEWIGEINPRNGRSNYNEKFKNKATVTVDKYSNTAYMQLSSLTSDDSAVYYCTRDGGDYWGQGTTVTVSSGGGGSGGGGSGGGARGGGGSDIVLTQSHKFMSTSVGDRVSITCKASQDVGTAVAWYQQKPGQSPKLLIYWASTRHTGVPDRFTGSGSGTDFTLTISNVQSEDLADYFCQQYSSYPLTFGGGTKLEMKRAS
cross-reactivity / inhibition by the 16 EPA PAHs ([1]; listed as A10): None of the 16 PAHs showed significant inhibition; also recorded: no cross-reactivity to other PAHs | recognition of 9-MP [9]: did not recognized | recognition of parent phenanthrene [10]: did not recognized | inhibition of binding to Phen-BSA-Biotin by soluble competitors [5]: some tendency for the 2-MePhen over unsubstituted Phen
